This is an account of results in paper PMC11387697, “Defining the functional properties of cyclopropane fatty acid synthase from Pseudomonas aeruginosa PAO1” (The Journal of Biological Chemistry, 2024).

Data set [1] deals with the molecule itself. The data set is described as follows: native MS; native ion mobility MS; 5 uM enzyme buffer exchanged into 200 mM ammonium acetate, pH 7.5; nanoESI under gentle conditions (Waters Synapt G2-Si); collision-induced unfolding of the 20+ dimer ion at 4 to 110 V.
Substrate in the data set “purified protein”: C[S+](CC[C@H](N)C(=O)O)C[C@H]1O[C@@H](n2cnc3c(N)ncnc32)[C@H](O)[C@@H]1O
The experiment in a line: purified protein. The following applies: 60:40 PE 18:1/18:1:DPPG 100 nm unilamellar liposomes 1 mg/ml, HEPES pH 7.5, 37 °C.

B1: Pseudomonas aeruginosa PAO1 cyclopropane fatty acid synthase (PA-CFAS) (enzyme, UniProt Q9HT28 1-394, looked up)
chain: MIAQLPSELLSLQLPLRIRIGDAQAFDLGPDPQVTMVIRDPSLLTEITHPSLDALGKAYVEKRLDIEGPISQVIGIGDALSEALGEPDGGAPPVRESHDKDTDAEAIHYHYDLSNDFYQLWLDPEMVYSCAYFETGKEDLATAQLAKLRHLCRKLRLQPGEKLLDVGCGWGGLARLAAREFGVEVTGITLSKEQLALGRERVKAEGLEDRVTLKLLDYRDLPRDGRFDKVVSVGMFEHVGHANLGLYFQQLYEAVRPGGLVMNHGITSRYTDGRPVGKGAGDFIDRYVFPHGELPHLSLAVARMSEAGLEVVDVESLRLHYARTLDFWSANLEARLKEAARLVPEETLRIWRLYLAGCAYGFKRGWINLHQILAIRPHEDGSHELPWSRRDLYA
notes: Cyclopropane fatty acid synthase, gene PA5546, P. aeruginosa PAO1, amplified from the PAO1 genome and cloned into pET16b; monomer with His6 tag MWcalc = MWobs = 46,486 Da; The native-MS dimer mass (92,972 Da) is twice the tagged monomer mass, so the tag was present in the assay; also called PA5546; Pseudomonas CFAS enzyme
Usually stoichiometry N stands for a count of units in the complex or per binding partner. B1: the “stoichiometry N” value in data set [1] worked out at 2.

B2: EC-CFAS (Escherichia coli K-12) (protein)
chain: SSSCIEEVSVPDDNWYRIANELLSRAGIAINGSAPADIRVKNPDFFKRVLQEGSLGLGESYMDGWWECDRLDMFFSKVLRAGLENQLPHHFKDTLRIAGARLFNLQSKKRAWIVGKEHYDLGNDLFSRMLDPFMQYSCAYWKDADNLESAQQAKLKMICEKLQLKPGMRVLDIGCGWGGLAHYMASNYDVSVVGVTISAEQQKMAQERCEGLDVTILLQDYRDLNDQFDRIVSVGMFEHVGPKNYDTYFAVVDRNLKPEGIFLLHTIGSKKTDLNVDPWINKYIFPNGCLPSVRQIAQSSEPHFVMEDWHNFGADYDTTLMAWYERFLAAWPEIADNYSERFKRMFTYYLNACAGAFRARDIQLWQVVFSRGVENGLRVAR
One may read the Km as the substrate concentration at which the rate is half of its maximum. Broadly, the kcat is the maximal rate divided by the concentration of active sites. For B2, in “purified protein”, the Michaelis-Menten constant (Km) worked out at 68 µM and the kcat was determined as 0.217 s⁻¹.
